US7910708 (Novartis, dated 2011)

Target: T1, recombinant human IL-13 (human, UniProt P35225 35-146, limits assumed)
Experiment: cell-based or functional assay

T1 sequence (P35225 35-146 limits assumed): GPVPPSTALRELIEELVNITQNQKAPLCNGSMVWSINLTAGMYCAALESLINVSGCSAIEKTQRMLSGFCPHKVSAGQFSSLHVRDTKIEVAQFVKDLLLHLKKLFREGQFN

Row | EC50 [nM] human IL-13 (IL-13-induced eotaxin release from human lung fibroblasts) | Binder
1 | 0.33 nM | 01951/G12 antibody (human IgG1, kappa) (antibody, V domains shown) VH: EVQLVESGGGVVQPGRSLRLSCAASGFTFSSYGMHWVRQAPGKGLEWVAIIWYDGSNKYYADSVKGRFTISRDNSKNTLYLQMNSLRAEDTAVYYCARLWFGDLDAFDIWGQGTMVTVSS VL: EIVLTQSPATLSLSPGERAILSCRAGQSVSSYLVWYQQKPGQAPRLLIYDASNRATGIPARFSGSGSGTDFTLTISSLEPEDFAVYYCQQRSSWPPVYTFGQGTKLEIKR
2 | 1.23 nM | 01471/G6 antibody (human IgG1, kappa) (antibody, V domains shown) VH: EVQLVESGGGVVQPGRSLRLSCAASGFTFSNYGMHWVRQAPGKGLEWVAIIWYDGSNKYYADSVKGRFTISRDNSKNTLYLQMNSLRAEDTAVYYCVKGSGDIPFDYWGQGTLVT VL: EIVLTQSPATLSSSPGERATLSCRASQSVSSYLAWYQQKPGQAPRLLIYDASNRATGIPARFSGSGSGTDFTLTISSLEPEDFAVYYCHQRSHWPPIFTFGPGT
3 | 1.71 nM | 01771/E10 antibody (human IgG1, kappa) (antibody, V domains shown) VH: QVQLVQSGGGVVQPGRSLRLSCAASGFTFSSYGMHWVRQAPGKGLEWVAIIWYDGSNKYYADSVKGRFTISRDNSKNTLYLQMNSLRAEDTAVYYCARLWFGDLDAFDIWGQGTMVT VL: EIVLTQSPATLSLSPGERATLSCRASQSVSSYLAWYQQKPGQAPRLLIYDASNRATGIPARFSGSGSGTDFTLTISSLEPEDFAVYYCHQRSSWPPIFTFGPGT
4 | 0.95 nM | 03161/H2 antibody (human IgG1, kappa) (antibody, V domains shown) VH: EVQLVESGGGVVQPGRSLRLSCAASGFTFSNYGMHWVRQAPGKGLEWVAIIWYDGSNKYYADSVKGRFTISRDNSKNTLYLQMNSLRAEDTAVYYCVKGSGDIPFDYWGQGTLVT VL: EIVLTQSPATLSSSPGERATLSCRASQSVSSYLAWYQQKPGQAPRLLIYDASNRATGTPARFSGSGSGTDFTLTISSLEPEDFAVYYCHQRSHWPPIFTFGPGT

Target: T1, recombinant human IL-13
Experiment: SPR, BIAcore 2000; Fab captured via anti-human L-kappa antibody, hrIL-13 injected; 1:1 Langmuir model
Description: Quantitative Analysis of Binding Affinities: Determination of Anti-Human IL-13 Fab Candidates Surface plasmon resonance measurements quantifying the interaction of anti-IL-13 Fabs with several hrIL-13 are performed using the optical biosensor, BIAcore 2000. Specific binding of IL-13 to a respective IL-13 Fab immobilized on a BIAcore chip can be measured by following accumulation of the ligand on the receptor. The microscopic association ($kon$) and dissociation rates ($koff$) can be obtained directly from the mass accumulation rates on the chip and are expressed in response units (RUs). Anti-IL-13 Fab is immobilized on the chip surface via a secondary anti-human Lκ antibody (Jackson Immunochemicals). This capture antibody was covalently bound using the 'Amine coupling kit' (BIAcore, Cat. No. BR-1000-50) as recommended in the manufacturers' protocols. 250 μl of varying concentrations of hrIL-13 was injected at flow rate of 20 μl/min and the kinetic trace was recorded. The chip surface was regenerated by two acid wash steps using 100 mM HCl and injecting 10 μl with a flow rate of 20 μl/min. This treatment leads to dissociation of the Fab IL-13 complex due to reversible acid denaturation. No significant loss of binding activity was observed when the antibody was reinjected for a subsequent run. The kinetic traces were evaluated with the BIAcore software applying the 1:1 Langmuir association model The summarized affinity data on human IL-13 is shown in Table 1 herein.

Row | Kd | Binder
5 | 480 pM | 01951/G12 Fab (Fab, V domains shown, Soluble human Fab expressed in E. coli, kappa light chain) VH: EVQLVESGGGVVQPGRSLRLSCAASGFTFSSYGMHWVRQAPGKGLEWVAIIWYDGSNKYYADSVKGRFTISRDNSKNTLYLQMNSLRAEDTAVYYCARLWFGDLDAFDIWGQGTMVT VL: EIVLTQSPATLSLSPGERAILSCRAGQSVSSYLVWYQQKPGQAPRLLIYDASNRATGIPARFSGSGSGTDFTLTISSLEPEDFAVYYCQQRSSWPPVYTFGQGT
6 | 100 pM | 01471/G6 Fab (Fab, V domains shown, Soluble human Fab expressed in E. coli, kappa light chain (captured via anti-human L-kappa antibody); the printed variable regions stop short of the end of framework 4) VH: EVQLVESGGGVVQPGRSLRLSCAASGFTFSNYGMHWVRQAPGKGLEWVAIIWYDGSNKYYADSVKGRFTISRDNSKNTLYLQMNSLRAEDTAVYYCVKGSGDIPFDYWGQGTLVT VL: EIVLTQSPATLSSSPGERATLSCRASQSVSSYLAWYQQKPGQAPRLLIYDASNRATGIPARFSGSGSGTDFTLTISSLEPEDFAVYYCHQRSHWPPIFTFGPGT
7 | 343 pM | 01771/E10 Fab (Fab, V domains shown, Soluble human Fab expressed in E. coli, kappa light chain) VH: QVQLVQSGGGVVQPGRSLRLSCAASGFTFSSYGMHWVRQAPGKGLEWVAIIWYDGSNKYYADSVKGRFTISRDNSKNTLYLQMNSLRAEDTAVYYCARLWFGDLDAFDIWGQGTMVT VL: EIVLTQSPATLSLSPGERATLSCRASQSVSSYLAWYQQKPGQAPRLLIYDASNRATGIPARFSGSGSGTDFTLTISSLEPEDFAVYYCHQRSSWPPIFTFGPGT
8 | 197 pM | 03161/H2 Fab (Fab, V domains shown, Soluble human Fab expressed in E. coli, kappa light chain) VH: EVQLVESGGGVVQPGRSLRLSCAASGFTFSNYGMHWVRQAPGKGLEWVAIIWYDGSNKYYADSVKGRFTISRDNSKNTLYLQMNSLRAEDTAVYYCVKGSGDIPFDYWGQGTLVT VL: EIVLTQSPATLSSSPGERATLSCRASQSVSSYLAWYQQKPGQAPRLLIYDASNRATGTPARFSGSGSGTDFTLTISSLEPEDFAVYYCHQRSHWPPIFTFGPGT
